Source: patent US20140235820A1, “METHODS AND COMPOSITIONS FOR MODULATING THE Wnt PATHWAY” (Genentech, Inc., priority 2010, published 2014)

T1: human LRP6 construct E1E2 (amino acids A20-E631) (human, UniProt O75581 20-631, biotinylated for biolayer interferometry)
T1 construct: range 20-631; also called LRP6 E1E2
T1 sequence (looked up): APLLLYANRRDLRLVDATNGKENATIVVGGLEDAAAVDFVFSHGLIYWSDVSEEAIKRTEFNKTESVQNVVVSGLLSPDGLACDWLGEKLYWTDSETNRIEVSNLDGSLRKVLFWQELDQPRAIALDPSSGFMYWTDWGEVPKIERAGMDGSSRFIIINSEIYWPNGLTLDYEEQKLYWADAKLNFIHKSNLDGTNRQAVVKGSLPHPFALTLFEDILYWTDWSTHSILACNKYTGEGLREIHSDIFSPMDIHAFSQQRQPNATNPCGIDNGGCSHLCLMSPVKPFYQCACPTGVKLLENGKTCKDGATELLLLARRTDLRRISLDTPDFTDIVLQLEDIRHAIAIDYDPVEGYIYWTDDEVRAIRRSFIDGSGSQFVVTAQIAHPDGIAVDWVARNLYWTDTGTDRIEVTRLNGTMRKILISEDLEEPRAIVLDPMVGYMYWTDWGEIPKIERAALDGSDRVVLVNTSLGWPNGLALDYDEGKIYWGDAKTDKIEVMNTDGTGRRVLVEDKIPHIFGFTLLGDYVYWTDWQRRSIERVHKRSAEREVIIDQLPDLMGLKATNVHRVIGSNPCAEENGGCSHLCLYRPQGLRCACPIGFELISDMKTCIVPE

T2: human LRP6 construct E1E4 (amino acids A20-Q1253) (human, UniProt O75581 20-1253, biotinylated for biolayer interferometry)
T2 construct: range 20-1253; Expressed in Tni insect cells; tags not specified for this construct; also called LRP6 E1E4
T2 sequence (looked up): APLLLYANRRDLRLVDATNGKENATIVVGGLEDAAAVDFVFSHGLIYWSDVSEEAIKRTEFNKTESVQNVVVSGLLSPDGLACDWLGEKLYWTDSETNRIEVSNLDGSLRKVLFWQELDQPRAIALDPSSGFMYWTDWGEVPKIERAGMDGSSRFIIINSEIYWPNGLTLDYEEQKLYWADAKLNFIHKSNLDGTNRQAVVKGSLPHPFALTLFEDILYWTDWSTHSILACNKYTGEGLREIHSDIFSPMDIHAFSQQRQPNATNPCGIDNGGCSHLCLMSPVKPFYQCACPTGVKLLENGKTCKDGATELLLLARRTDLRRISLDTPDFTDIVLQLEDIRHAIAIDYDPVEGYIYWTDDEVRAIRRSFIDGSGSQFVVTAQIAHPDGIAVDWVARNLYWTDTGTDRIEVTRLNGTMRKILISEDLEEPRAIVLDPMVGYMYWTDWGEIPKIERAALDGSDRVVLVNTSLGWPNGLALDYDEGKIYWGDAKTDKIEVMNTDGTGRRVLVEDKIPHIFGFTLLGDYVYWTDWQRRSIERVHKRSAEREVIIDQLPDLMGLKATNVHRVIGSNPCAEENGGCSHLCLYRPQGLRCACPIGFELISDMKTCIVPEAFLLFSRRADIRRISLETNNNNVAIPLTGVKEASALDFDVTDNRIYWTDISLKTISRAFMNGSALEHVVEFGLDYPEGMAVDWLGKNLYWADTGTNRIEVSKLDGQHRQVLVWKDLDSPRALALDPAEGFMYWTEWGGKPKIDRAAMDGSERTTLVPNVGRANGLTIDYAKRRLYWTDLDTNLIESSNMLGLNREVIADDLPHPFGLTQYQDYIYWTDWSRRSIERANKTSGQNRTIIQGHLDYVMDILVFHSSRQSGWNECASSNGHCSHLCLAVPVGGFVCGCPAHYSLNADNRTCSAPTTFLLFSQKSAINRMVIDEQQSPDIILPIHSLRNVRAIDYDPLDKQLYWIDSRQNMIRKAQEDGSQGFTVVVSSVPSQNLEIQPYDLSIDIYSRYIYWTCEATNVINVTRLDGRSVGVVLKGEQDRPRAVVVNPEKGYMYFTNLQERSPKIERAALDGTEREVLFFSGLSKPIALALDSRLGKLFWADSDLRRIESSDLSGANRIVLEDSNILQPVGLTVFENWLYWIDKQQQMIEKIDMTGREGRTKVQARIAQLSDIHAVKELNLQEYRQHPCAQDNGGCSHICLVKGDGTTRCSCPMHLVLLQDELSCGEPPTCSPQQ

B1: Dkk1 K211E (ligand, human, UniProt O94907 32-266, looked up)
chain: TLNSVLNSNAIKNLPPPLGGAAGHPGSAVSAAPGILYPGGNKYQTIDNYQPYPCAEDEECGTDEYCASPTRGGDAGVQICLACRKRRKRCMRHAMCCPGNYCKNGICVSSDQNHFRGEIEETITESFGNDHSTLDGYSRRTTLSSKMYHTKGQEGSVCLRSSDCASGLCCARHFWSKICEPVLKEGQVCTKHRRKGSHGLEIFQRCYCGEGLSCRIQKDHHQASNSSRLHTCQRH
notes: also called Dkk1 Lys211Glu

Legend:
LRP6 = test: Competition binding between Dkk1 and other Wnt pathway inhibitors (preloaded Dkk1); set-up: species or system human; conditions: Dkk1 100 nM preloaded, test ligand 100 nM
Procedure: FIG. 8. Competition binding between Dkk1 and other Wnt pathway inhibitors. The indicated LRP6 construct was preloaded onto biosensor tips. Dkk1 (100 nM) (or buffer control) and the test ligand (100 nM) were loaded sequentially onto the LRP6 tips. (A) Dkk2 competition with Dkk1. (B) Sclerostin competition with Dkk1. Percent binding in the presence of Dkk1 is shown relative to buffer control.
(§1) Binding kinetics were measured by biolayer interferometry using an Octet Red instrument (ForteBio) as previously described (11). Streptavidin (SA) biosensors were loaded with biotinylated hLRP6 in 50 mMTris, pH 8, 300 mM NaCl, 5% (v/v) glycerol, and 0.05% (w/v) Triton X-100. The loaded biosensors were washed in the same buffer before carrying out association and dissociation measurements for the indicated times. The Kd of each interaction was determined using steady state-analysis through the Octet Red software v6.3. Each reported value represents an average of three or more experiments at different concentrations, with a fitted experimental curve for which the square of the correlation coefficient (R^2) is above 0.96.
To assess whether Dkk1, Dkk2, and sclerostin might bind to the same site on LRP6 E1, Dkk2 or sclerostin binding was measured in the presence of preloaded Dkk1 (100 nM). […]

[1] = target: T1, human LRP6 construct E1E2 (amino acids …); test: BLI (FIG. 9B)
Procedure: as §1, with “(R²)” for “(R^2)”

[2] = target: T2, human LRP6 construct E1E4 (amino acids …); test: BLI (FIG. 9B)
Procedure: as §1, with “(R²)” for “(R^2)”

| Molecule | binding to LRP6 in the presence of preloaded Dkk1 (LRP6) | binding result [1] | binding result [2] |
| --- | --- | --- | --- |
| sclerostin: Sclerostin protein, Wnt pathway inhibitor, expressed in insect cells (LPNAIGR) | very strongly inhibited | – | – |
| B1 | – | binds | binds |
